Results published in US20180066035A1 (published 2018).
Positions count from the first letter of the chain named. Numbers in names are those of the source.

Assays:
[1] = molecular target: murine ICAM-1 on bEnd.3 cells (mouse) (UniProt P13597); experiment: cell-based or functional assay
[2] = molecular target: human ICAM-1 on cells (HeLa, 8505C, 8505C/LPS, HMEC-1, T cells) (human) (UniProt P05362); experiment: cell-based or functional assay
[3] = molecular target: T1, human ICAM-1 (immobilized, SPR) (human, UniProt P05362 28-480, limits assumed); experiment: SPR, I domain over immobilized human ICAM-1
T1 construct: Form immobilized on the SPR chip is not described; also called Intercellular adhesion molecule-1; CD54
T1 sequence (P05362 28-480 limits assumed): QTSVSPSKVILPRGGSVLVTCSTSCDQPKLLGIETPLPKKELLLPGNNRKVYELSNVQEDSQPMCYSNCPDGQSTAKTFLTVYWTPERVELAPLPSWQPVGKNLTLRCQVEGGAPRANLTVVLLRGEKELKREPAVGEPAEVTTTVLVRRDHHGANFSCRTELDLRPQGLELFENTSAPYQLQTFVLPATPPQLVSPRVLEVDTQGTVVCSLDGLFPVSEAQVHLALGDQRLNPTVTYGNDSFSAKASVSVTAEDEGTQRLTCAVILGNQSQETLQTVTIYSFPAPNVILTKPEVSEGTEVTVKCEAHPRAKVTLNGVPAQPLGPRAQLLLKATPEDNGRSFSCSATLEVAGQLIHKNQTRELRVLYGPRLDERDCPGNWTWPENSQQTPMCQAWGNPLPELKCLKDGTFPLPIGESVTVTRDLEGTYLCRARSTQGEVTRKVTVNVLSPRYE

[4] = molecular target: T2, human ICAM-1 on cells (HeLa, 8505C, 8505C/LPS, HMEC-1, T cells) (human, UniProt P05362 28-532); experiment: estimated from titrated R6.5 antibody binding to HeLa cells
T2 construct: whole, on cells
T2 sequence (P05362 28-532): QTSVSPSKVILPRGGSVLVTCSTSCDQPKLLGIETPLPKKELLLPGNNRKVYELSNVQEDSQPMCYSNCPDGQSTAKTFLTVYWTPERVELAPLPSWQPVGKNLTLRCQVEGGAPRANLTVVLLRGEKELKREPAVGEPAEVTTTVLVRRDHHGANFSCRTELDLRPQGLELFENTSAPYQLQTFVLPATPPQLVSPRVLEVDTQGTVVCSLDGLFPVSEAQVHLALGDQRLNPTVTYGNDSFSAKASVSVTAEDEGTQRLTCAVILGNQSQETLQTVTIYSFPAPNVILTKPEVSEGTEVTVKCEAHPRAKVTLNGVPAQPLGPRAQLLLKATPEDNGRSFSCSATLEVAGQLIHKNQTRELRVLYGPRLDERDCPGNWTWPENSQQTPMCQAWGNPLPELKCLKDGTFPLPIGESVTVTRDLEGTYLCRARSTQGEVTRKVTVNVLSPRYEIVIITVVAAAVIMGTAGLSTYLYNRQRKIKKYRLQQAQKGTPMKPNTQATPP

[5] = molecular target: T3, recombinant human ICAM-1 fused to human Fcγ (R&D Systems) (human, UniProt P05362 28-480); experiment: estimated from flow cytometry MFI of ICAM-1-Fc binding to yeast cells expressing the I domain variant
T3 construct: Bought reagent; also called ICAM-1-Fc; human ICAM-1-Fcγ; not shown: human Fcγ
T3 sequence (P05362 28-480 limits assumed): as the sequence (P05362 28-480 limits assumed) above

[6] = molecular target: T1, human ICAM-1 (immobilized, SPR); experiment: comparison of the Table 1 affinities
[7] = molecular target: T1, human ICAM-1 (immobilized, SPR); experiment: SPR
murine ICAM-1 (SPR) = murine ICAM-1 (SPR) (murine, UniProt P13597 28-485, limits assumed); experiment: SPR, F265S/F292G flowed over murine ICAM-1 (FIG. 1C)
Sequence of murine ICAM-1 (SPR) (P13597 28-485 limits assumed): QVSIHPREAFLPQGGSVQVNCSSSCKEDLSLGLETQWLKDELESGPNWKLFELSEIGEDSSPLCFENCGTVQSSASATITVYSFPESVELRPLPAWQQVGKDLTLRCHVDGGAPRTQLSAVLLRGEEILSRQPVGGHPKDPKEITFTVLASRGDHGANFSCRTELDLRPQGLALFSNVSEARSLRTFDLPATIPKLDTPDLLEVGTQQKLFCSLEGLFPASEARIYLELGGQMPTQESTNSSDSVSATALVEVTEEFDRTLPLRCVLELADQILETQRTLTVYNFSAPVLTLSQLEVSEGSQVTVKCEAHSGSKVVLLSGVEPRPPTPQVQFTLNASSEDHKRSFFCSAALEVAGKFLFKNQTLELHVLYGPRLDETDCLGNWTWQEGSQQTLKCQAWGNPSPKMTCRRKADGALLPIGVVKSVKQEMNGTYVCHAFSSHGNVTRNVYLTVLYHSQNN

Sequence of human ICAM-1 on cells (HeLa, 8505C, 8505C/LPS, HMEC-1, T cells) (human) (P05362 28-532): as the sequence (P05362 28-532) above
Sequence of murine ICAM-1 on bEnd.3 cells (mouse) (P13597 28-537): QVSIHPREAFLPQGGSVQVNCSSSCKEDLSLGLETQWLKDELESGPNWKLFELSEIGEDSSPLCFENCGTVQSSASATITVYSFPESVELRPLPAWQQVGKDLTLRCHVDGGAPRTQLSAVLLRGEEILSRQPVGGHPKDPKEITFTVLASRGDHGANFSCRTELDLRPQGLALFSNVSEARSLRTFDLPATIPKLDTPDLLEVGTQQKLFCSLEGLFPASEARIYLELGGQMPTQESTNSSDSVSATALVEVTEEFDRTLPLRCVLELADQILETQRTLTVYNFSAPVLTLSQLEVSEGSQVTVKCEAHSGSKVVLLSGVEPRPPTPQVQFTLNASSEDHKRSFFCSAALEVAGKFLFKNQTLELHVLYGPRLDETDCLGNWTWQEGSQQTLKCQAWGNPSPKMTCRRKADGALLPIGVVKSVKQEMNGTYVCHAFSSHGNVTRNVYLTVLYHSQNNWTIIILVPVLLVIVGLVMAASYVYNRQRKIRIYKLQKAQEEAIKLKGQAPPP

B1: TM (F265S/F292G/G311C) I domain CAR (receptor, part only; not given: Tag, hinge, transmembrane and signaling domains, not shown: another chain or arm of the molecule; a dimerising Fc or GST; small tags and cut ends)
chain: ECIKGNVDLVFLFDGSMSLQPDEFQKILDFMKDVMKKLSNTSYQFAAVQFSTSYKTEFDFSDYVKWKDPDALLKHVKHMLLLTNTFGAINYVATEVFREELGARPDATKVLIIITDGEATDSGNIDAAKDIIRYIIGIGKHSQTKESQETLHKFASKPASEFVKILDTGEKLKDLFTELQKKIYVIECTS
modifications: Disulfide bond between Cys-125 (chain position 2) and the introduced Cys-311 (chain position 188), per paragraph 45.
[1]
  time (hours) to 50% killing, bEND3 target cells: 13 h
[2]
  time (hours) to 50% killing, 8505C target cells: 17.1 h
  time (hours) to 50% killing, 8505C/-ICAM-1 target cells: 32.6 h
  time (hours) to 50% killing, 8505C/LPS target cells: 15.1 h
  time (hours) to 50% killing, HMEC target cells: 13.4 h
  time (hours) to 50% killing, HeLa target cells: 10.8 h

B2: F265S/F292G/G311C (TM) LFA-1 I domain (receptor)
chain: B1 chain
modifications: disulfide bond between Cys-311 (G311C) and naturally unpaired Cys-125
notes: also called triple mutant
[3]
  Kd: ~0.001 µM

B3: R6.5 (mouse anti-human ICAM-1 monoclonal antibody from hybridoma; scFv derived from it) (antibody, V domains shown)
VH: QVQLQQSGPELVRPGVSVKISCKGSGYTFIDYAIHWVKESHAKSLEWIGVISAYSGDTNYNQKFKGKATMTVDKSSNTAYLELARLTSEDSAIYYCARGGWLLLSFDYWGQGTTLTVSS
VL: DVVMTQSPLSLPVSLGDQASISCRSSQSLVHSNGNNYLHWYLQKSGQAPKLLIYKVSNRFSGVPDRFSGSGSGTDFTLKISRVEAEDLGVYFCSQSTHVPLTFGGGTKLEIK
[4]
  Kd: 0.01 µM

B4: Wild-type (WT) LFA-1 I domain (receptor)
chain: GNVDLVFLFDGSMSLQPDEFQKILDFMKDVMKKLSNTSYQFAAVQFSTSYKTEFDFSDYVKWKDPDALLKHVKHMLLLTNTFGAINYVATEVFREELGARPDATKVLIIITDGEATDSGNIDAAKDIIRYIIGIGKHFQTKESQETLHKFASKPASEFVKILDTFEKLKDLFTELQKKIYVIEG
notes: I domain of the αL subunit of human LFA-1; also called WT I domain; wild-type human I domain
[3]
  Kd: 1500 µM

B5: F292S LFA-1 I domain (receptor)
chain: B4 chain with F165S
[5]
  Kd: 1.24 µM

B6: F292A LFA-1 I domain (receptor)
chain: B4 chain with F165A
[2]
  time (hours) to 50% killing, 8505C target cells: 41.5 h
  time (hours) to 50% killing, 8505C/LPS target cells: 30.8 h
  time (hours) to 50% killing, HeLa target cells: 18.7 h
[6]
  fold lower affinity than the scFv-based R6.5 CAR: > 1000 fold
[3]
  Kd: 20 µM

B7: F292G LFA-1 I domain (receptor)
chain: B4 chain with F165G
[1]
  time (hours) to 50% killing, bEND3 target cells: 16.2 h
[2]
  time (hours) to 50% killing, 8505C target cells: 27.3 h
  time (hours) to 50% killing, 8505C/LPS target cells: 24 h
  time (hours) to 50% killing, HMEC target cells: 21.1 h
  time (hours) to 50% killing, HeLa target cells: 14.9 h
[3]
  Kd: 0.119 µM

B8: F265S LFA-1 I domain (receptor)
chain: B4 chain with F138S
[3]
  Kd: 0.145 µM

B9: L289G LFA-1 I domain (receptor)
chain: B4 chain with L162G
[5]
  Kd: 0.196 µM

B10: I309T LFA-1 I domain (receptor)
chain: B4 chain with I182T
[5]
  Kd: 127 µM

B11: I288N LFA-1 I domain (receptor)
chain: B4 chain with I161N
[5]
  Kd: 202 µM

B12: L295A LFA-1 I domain (receptor)
chain: B4 chain with L168A
[5]
  Kd: 37 µM

B13: F265S/F292G (DM) LFA-1 I domain (receptor)
chain: B4 chain with F138S, F165G
[3]
  Kd: 0.006 µM
[7]
  fold higher affinity than the wild-type (WT) I domain: ~200000 fold
Murine ICAM-1 (SPR)
  Kd: 0.002 µM
